# Assay results: patent US20210238298A1 (ALLIGATOR BIOSCIENCE, published 2021)
# Positions count from the first letter of the chain named. Names and notes keep the numbering of the source.
# B1: CD86 mutant 900 (ligand)
# chain: LKIQAYFNETADLPCQFANSQNQSLSELVVFWQDQENLVLNEVYLGKEKFDSVDSKYMGRTSFDSDSWTLRLHNLQIKDKGIYQCVIHHKKPSGLVKIHEMNSELSVLA
# notes: Variant of the CD86 extracellular domain
# B2: CD86 mutant 1039 (ligand)
# chain: APLKIQAYFNETADLPCQFANSQNLSLSELVVFWQDQENLVLNEVYLGKEKFDSVSSKYMGRTSFDSDSWTLRLHNLQIKDKGIYQCIIHHKKPSGMVKIHQMDSELSVLA
# notes: as for B1
# B3: CD86 mutant 1038 (ligand)
# chain: B2 chain with S56D, S95T, Q102E, D104N
# notes: as for B1
# B4: CD86 mutant 1043 (ligand)
# chain: B2 chain with S56D, S95T, V98I, Q102E, D104N
# notes: as for B1
# B5: CD86 mutant 1045 (ligand)
# chain: B2 chain with S26T, S56D, I84L, S95T, M97L, Q102E, D104N
# notes: as for B1
# B6: CD86 mutant 1042 (ligand)
# chain: B2 chain with K51I
# notes: as for B1
# B7: CD86 mutant H79A (Peach et al.) (ligand)
# chain: B2 chain with L25Q, S56A, I84L, S95T, V98I, K99R, D104N
# notes: also called Prior Art
# B8: CD86 mutant 1047 (ligand)
# chain: B2 chain with S56D, S95T, M97L, Q102E, D104N
# notes: as for B1
# B9: CD86 mutant 1044 (ligand)
# chain: B2 chain with S26T, S95T, V98I, Q102E, D104S
# notes: as for B1
# B10: CD86 mutant 1046 (ligand)
# chain: B2 chain with L25Q, S56D, K80E
# notes: as for B1
# B11: CD86 mutant 1041 (ligand)
# chain: B2 chain with F9L, S56D, S95T, M97L, Q102E, D104N
# notes: as for B1
# Target: T1, CTLA4-Fc (Fitzgerald, #30R-CD152) (human, UniProt P16410 38-152)
# T1 construct: Bought; also called human CTLA-4 (Fitzgerald); biotinylated-CTLA4; not shown: Fc part of the bought fusion, not described
# T1 sequence (P16410 38-152 limits assumed): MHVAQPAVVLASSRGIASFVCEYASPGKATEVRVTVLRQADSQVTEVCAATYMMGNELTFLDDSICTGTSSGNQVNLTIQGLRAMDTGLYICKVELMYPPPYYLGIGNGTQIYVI
# Assay: ELISA on coated CTLA4-Fc and CD28-Fc
# Experimental: 96-well flat bottom high binding plates (Greiner, #655074) were coated with either CTLA4-Fc (Fitzgerald, #30R-CD152) or CD28-Fc (R&D systems, 342-CD) by incubating overnight at 4° C. […] The plates were washed again and sample or controls (serially diluted ⅕ from 200-0.001 μg/ml) were added to the wells. The samples were incubated for 1 h at room temperature and then washed. Detection antibody, goat-anti-human IgG Fcγ-HRP (Jackson, #109-035-098) was added and the plates were subsequently developed using SuperSignal Pico Chemiluminescent substrate (Thermo Scientific, #37069) and detected with an Envision reader (Perkin Elmer). EC50 values were calculated for both CTLA4 and CD28. The binding ratio (EC50 binding ratio=[EC50 for CD28]÷[EC50 for CTLA-4]) was calculated for each polypeptide and is shown in Table 1.1.
row,EC50 binding ratio ([EC50 for CD28]/[EC50 for CTLA-4]),Binder
1,3.5,B1

# Target: T1, CTLA4-Fc (Fitzgerald, #30R-CD152)
# Assay: SPR (Biacore), immobilised CTLA4-Fc
# Experimental: Either CTLA4-Fc (Fitzgerald, #30R-CD152) or CD28-Fc (R&D Systems, 342-CD) was immobilized to the Biacore™ sensor chip, CM5, using conventional amine coupling. The CD86 mutant molecules and controls (serially diluted ½ 100-1.5 nM) were analyzed for binding in HBS-P (GE, BR-1003-68) at a flow rate of […]. The association was followed for 3 minutes and the dissociation for 10 minutes. Regeneration was performed twice using 5 mM NaOH for 30 seconds. The kinetic parameters and the affinity constants were calculated using BIAevaluation 4.1 software (Table 1.3).
Kd [nM],koff [s⁻¹],kon [M⁻¹ s⁻¹],Binder
8,0.0085,1e+06,B2
12,0.012,1e+06,B3
10,0.011,1.1e+06,B4
9,0.0083,940000,B5
25,0.011,440000,B6
63,0.022,340000,B7
10,0.0084,850000,B8
8,0.0094,1.1e+06,B9
6,0.008,1.4e+06,B10
12,0.0084,700000,B11

# Target: T2, soluble murine CTLA-4 (R&D systems) (murine, UniProt P09793 36-162)
# T2 construct: Bought
# Assay: not described
# Experimental: In brief, 96-well flat bottom plate high binding plates (Greiner #655074) were coated with human CTLA-4 (Fitzgerald) incubating overnight at 4° C.
# The sample (exemplary CD86 mutant) was pre-incubated at room temperature for 1 hour with soluble biotinylated human CTLA4 (Fitzgerald #30R-CD152) or soluble murine CTLA-4 (R&D systems) at different concentrations (serial dilutions ¼ from 30000 to 0.3 ng/ml).
# The mixture was then added to the blocked wells in the ELISA plate. Detection was performed with Streptavidin-HRP (Pierce, #21126) and the plates were subsequently developed using SuperSignal Pico Chemiluminescent substrate (Thermo Scientific, #37069) and detected with Envision reader (Perkin Elmer).
row,binding result,Binder
1,binds,B1
2,binds,B2
3,binds,B3
4,binds,B4
5,binds,B5
6,binds,B6
7,binds,B8
8,binds,B9
9,binds,B10
10,binds,B11
